Measured values: patent US20090221680, “Aptamers that bind thrombin with high affinity” (published 2009)
Substitutions are numbered along the chain they refer to.

Target: thrombin (alpha-thrombin) (Homo sapiens, UniProt P00734;P00734 P00734:315-363,P00734:364-622)
Assay: filter

B1: ARC2614 (XNA)
DNA: ACTGCCTAGGTTGGGTAGGGTGGTGGCAGT
modifications: 2'-OMe C2, rest DNA
Q: With B1 as the binder, how does the Kd read?
A: 52 pM

B2: ARC2621 (XNA)
DNA: B1 DNA
modifications: 2'-OMe G9, rest DNA
Q: With B2 as the binder, how does the Kd read?
A: 1520 pM

B3: ARC2836 (XNA)
mixed: AUGATTAGGTTGGGTAGGGTGGTAUCAU
modifications: 2'-OMe 1-4,25-28, rest DNA
Q: Which Kd does the source give for B3 here?
A: 960 pM

B4: ARC1985 (ssDNA)
DNA: CCTCAGGGATGGTGTGGGTGGCTGAGG
Q: Which Kd does the source give for B4 here?
A: 5700 pM

B5: ARC2619 (XNA)
mixed: B1 DNA with T7U
modifications: 2'-OMe U7, rest DNA
Q: How did the Kd turn out when B5 was run?
A: 215 pM

B6: ARC2616 (XNA)
DNA: B1 DNA
modifications: 2'-OMe G4, rest DNA
Q: For B6, which Kd is on record?
A: 91 pM

B7: ARC2843 (XNA)
mixed: UGATTAGGTTGGGTAGGGTGGTAUCA
modifications: 2'-OMe 1-3,24-26, rest DNA
Q: For B7, which Kd is on record?
A: 620 pM

B8: ARC2850 (XNA)
mixed: GATTAGGTTGGGTAGGGTGGTAUC
modifications: 2'-OMe 1-2,23-24, rest DNA
Q: For B8, which Kd is on record?
A: 330 pM

B9: ARC2842 (XNA)
mixed: UGAUTAGGTTGGGTAGGGTGGTAUCA
modifications: 2'-OMe 1-4,23-26, rest DNA
Q: With B9 as the binder, how does the Kd read?
A: 1060 pM

B10: ARC2615 (XNA)
mixed: B1 DNA with T3U
modifications: 2'-OMe U3, rest DNA
Q: B10 was tested. Which Kd did it give?
A: 94 pM

B11: ARC2170 (ssDNA)
DNA: B1 DNA with A1G, T30C
Q: How did the Kd turn out when B11 was run?
A: 190 pM

B12: ARC2848 (XNA)
mixed: GAUUAGGTTGGGTAGGGTGGUAUC
modifications: 2'-OMe 1-4,21-24, rest DNA
Q: How did the Kd turn out when B12 was run?
A: 2090 pM

B13: ARC2838 (XNA)
mixed: UGCCTAGGTTGGGTAGGGTGGTGGCA
modifications: 2'-OMe 1-4,23,25,26, rest DNA
Q: How did the Kd turn out when B13 was run?
A: 770 pM

B14: ARC2837 (XNA)
mixed: UGCCUAGGTTGGGTAGGGTGGUGGCA
modifications: 2'-OMe 1-5,22,23,25,26, rest DNA
Q: With B14 as the binder, how does the Kd read?
A: 2610 pM

B15: ARC2620 (XNA)
DNA: B1 DNA
modifications: 2'-OMe A8, rest DNA
Q: How did the Kd turn out when B15 was run?
A: 7100 pM

B16: ARC2171 (ssDNA)
DNA: CTGCCTAGGTTGGGTAGGGTGGTGGCAG
Q: B16 was tested. Which Kd did it give?
A: 221 pM

B17: ARC2618 (XNA)
DNA: B1 DNA
modifications: 2'-OMe C6, rest DNA
Q: Which Kd does the source give for B17 here?
A: 121 pM

B18: ARC2849 (XNA)
mixed: GAUTAGGTTGGGTAGGGTGGTAUC
modifications: 2'-OMe 1-3,22-24, rest DNA
Q: For B18, which Kd is on record?
A: 200 pM

B19: ARC2844 (XNA)
mixed: GCCUAGGTTGGGTAGGGTGGUGGC
modifications: 2'-OMe 1-4,21,22,24, rest DNA
Q: How did the Kd turn out when B19 was run?
A: 2650 pM

B20: ARC2841 (XNA)
mixed: UGAUUAGGTTGGGTAGGGTGGUAUCA
modifications: 2'-OMe 1-5,22-26, rest DNA
Q: Which Kd does the source give for B20 here?
A: 3550 pM

B21: ARC2613 (XNA)
DNA: B1 DNA
modifications: 2'-OMe A1, rest DNA
Q: For B21, which Kd is on record?
A: 173 pM

B22: ARC2840 (ssDNA)
DNA: TGATTAGGTTGGGTAGGGTGGTATCA
Q: With B22 as the binder, how does the Kd read?
A: 250 pM

B23: ARC2846 (XNA)
DNA: GCCTAGGTTGGGTAGGGTGGTGGC
modifications: 2'-OMe 1-2,24, rest DNA
Q: How did the Kd turn out when B23 was run?
A: 270 pM

B24: ARC2839 (XNA)
mixed: UGCCTAGGTTGGGTAGGGTGGTGGCA
modifications: 2'-OMe 1-3,25,26, rest DNA
Q: With B24 as the binder, how does the Kd read?
A: 580 pM

B25: ARC2845 (XNA)
DNA: GCCTAGGTTGGGTAGGGTGGTGGC
modifications: 2'-OMe 1-3,22,24, rest DNA
Q: With B25 as the binder, how does the Kd read?
A: 860 pM

B26: ARC2847 (ssDNA)
DNA: GATTAGGTTGGGTAGGGTGGTATC
Q: B26 was tested. Which Kd did it give?
A: 210 pM
